Test results from paper PMC4010494.

Biological target: chicken lysozyme (chicken) (UniProt P00698)
Assay: far-Western, overlay or dot blot; proteins resolved by SDS-PAGE and transferred to PVDF; biotinylated CaM 1:2400, 30 min at room temperature in TBS-T with 1 mM CaCl2; VectaStain, chemi-luminescence

fold lower CaM binding signal than for CaMKII: 500 fold
Substance: biotinylated calmodulin (CaM) (from UniProt P0DP23 1-149) (natural protein; other documents disagree on this pair)
